US20230357367A1
Read-outs that look alike come from different tables or passages of the source.

Legend:
Assay in all cases: cell-based or functional assay
[1] = molecular target: SARS-CoV-2 Omicron BA.2 Spike on pseudovirus (SARS-CoV-2)
[2] = molecular target: SARS-CoV-2 Delta Spike on virus particles (SARS-CoV-2)
[3] = molecular target: SARS-CoV-2 Omicron BA.1 Spike on virus particles (SARS-CoV-2)
[4] = molecular target: SARS-CoV-2 Omicron BA.2.12.1 Spike on pseudovirus (SARS-CoV-2)
[5] = molecular target: SARS-CoV-2 Omicron BA.4/5 Spike on pseudovirus (SARS-CoV-2)
[6] = molecular target: SARS-CoV-2 Omicron BA.2 Spike on pseudovirus (SARS-CoV-2); remark: listed apart in the source
[7] = molecular target: SARS-CoV-2 Delta Spike on virus particles (SARS-CoV-2); remark: listed apart in the source
[8] = molecular target: SARS-CoV-2 Omicron BA.1 Spike on virus particles (SARS-CoV-2); remark: listed apart in the source
[9] = molecular target: SARS-CoV-2 Omicron BA.2.12.1 Spike on pseudovirus (SARS-CoV-2); remark: listed apart in the source
[10] = molecular target: SARS-CoV-2 Omicron BA.4/5 Spike on pseudovirus (SARS-CoV-2); remark: listed apart in the source

Substance | IC50, pseudovirus neutralization [1] [ng/mL] | IC50, pseudovirus neutralization [2] [ng/mL] | IC50, pseudovirus neutralization [3] [ng/mL] | IC50, pseudovirus neutralization [4] [ng/mL] | IC50, pseudovirus neutralization [5] [ng/mL] | % neutralization at 4.5 µg/ml, pseudovirus [6] [%] | % neutralization at 4.5 µg/ml, pseudovirus [7] [%] | % neutralization at 4.5 µg/ml, pseudovirus [8] [%] | % neutralization at 4.5 µg/ml, pseudovirus [9] [%] | % neutralization at 4.5 µg/ml, pseudovirus [10] [%] | Neutralization - IC50, pseudovirus [10] [ng/mL] | IC50, pseudovirus neutralization [6] [ng/mL] | IC50, live virus neutralization [7] [ng/mL] | IC50, pseudovirus neutralization [7] [ng/mL] | IC50, live virus neutralization [8] [ng/mL] | IC50, pseudovirus neutralization [9] [ng/mL] | IC50, pseudovirus neutralization [10] [ng/mL]
AZD1061 (antibody) | 5.8 | 5.9 | 1220 | 5.1 | 41.2 | 99.7 | 100 | 83.9 | 99.8 | 96.7 |  |  |  |  |  |  | 
AZD8895 (antibody) | 608 | 0.5 | 1160 | 415 |  | 93.9 | 102 | 96.5 | 94.2 | 25.8 |  |  |  |  |  |  | 
Bebtelovimab (antibody) |  |  |  |  |  |  |  |  |  |  | 0.3 |  |  |  |  |  | 
Sotrovimab VH/VL (human IgG1 molecule expressing the same variable regions of Sotrovimab) (antibody) | 392 | 12.3 | 63.3 | 714 | 666 | 73.1 | 101 | 99.4 | 76.9 | 60.5 | 424 | 704 | 57.9 | 65 | 410 | 1200 | > 4500
